Measurements: US20210252159A1, “CONJUGATES OF CARTILAGE-HOMING PEPTIDES” (priority 2018, published 2021)
Read-outs that look alike come from different tables or passages of the source. Positions of bridges follow the written chain, without caps; N, C: chain ends. Residues, ends and D or L forms follow the SMILES beside them. *: point of attachment. X1 = CC(CCC(C)C(=O)*)C(=O)OCC(=O)[C@@]1(O)[C@H](C)C[C@H]2[C@@H]3CCC4=CC(=O)C=C[C@]4(C)[C@@]3(F)[C@@H](O)C[C@@]21C

Legend:
[1] = Hydrolysis assay of peptide-drug conjugates in rat plasma (free drug by LC/MS); assay type: in vitro ADME; conditions: 37° C.

Which half-life at 0.25 mg/mL ([1]; Rat Plasma, release of free Dex, time points to 32 hr, read-out: Half-life (hours) as measured in the hydrolysis experiments (converted)) does the source give for `CC[C@H](C)[C@@H]1NC(=O)[C@@H]2CSSC[C@H](NC(=O)[C@H](CCCNC(=N)N)NC(=O)[C@@H](NC(=O)[C@H](CC(N)=O)NC(=O)[C@@H](NC(=O)[C@@H]3CCCN3C(=O)[C@@H](NC(=O)CNC(=O)[C@H](CO)NC(=O)CNC(=O)C(C)CCC(C)C(=O)OCC(=O)[C@@]3(O)[C@H](C)C[C@H]4[C@@H]5CCC6=CC(=O)C=C[C@]6(C)[C@@]5(F)[C@@H](O)C[C@@]43C)C(C)C)[C@@H](C)CC)C(C)C)C(=O)N[C@@H](CCCNC(=N)N)C(=O)NCC(=O)N[C@@H](CO)C(=O)N[C@@H](CCCNC(=N)N)C(=O)N[C@@H](CC(=O)O)C(=O)N[C@H]3CSSC[C@H](NC(=O)[C@H](CCCNC(=N)N)NC(=O)[C@H](CO)NC(=O)[C@H](CC(N)=O)NC1=O)C(=O)N[C@@H](Cc1c[nH]cn1)C(=O)N[C@H](C(=O)N[C@H](C(=O)N1CCC[C@H]1C(=O)O)[C@@H](C)O)CSSC[C@H](NC(=O)[C@@H]1CCCN1C(=O)[C@H](CC(=O)O)NC(=O)[C@H](CC(C)C)NC3=O)C(=O)N[C@@H](CCCNC(=N)N)C(=O)N[C@@H](CCCNC(=N)N)C(=O)N[C@@H](C)C(=O)NCC(=O)N[C@@H](CCSC)C(=O)N[C@@H](CCCNC(=N)N)C(=O)N[C@@H](Cc1ccccc1)C(=O)NCC(=O)N[C@@H](CCCNC(=N)N)C(=O)N2` (stereo partly drawn) [Compound 27, peptide(SEQ ID NO: 105)-[dimethyladipic acid]-Dex] (X1-GSGVPINVRCRGSRDCLDPCRRAGMRFGRCINSRCHCTP-OH; disulfide 10-30, 16-35, 20-37 (inferred); C-terminus assumed) here?
The half-life at 0.25 mg/mL was 9.9 h.

What about the half-life at 0.25 mg/mL ([1]; in rat plasma, free Dex, read-out: Hydrolysis half-life (converted)) of the same compound?
Its half-life at 0.25 mg/mL is 9.9 h.

And the “ankle swelling over time as compared to vehicle” value (CIA rats; 0.2 mg/kg and 0.5 mg/kg Dex equivalents IV days 11 and 12)?
Its value is “reduction in ankle swelling”.

What about the spleen weight (CIA rats; 0.2 mg/kg and 0.5 mg/kg dose) of the same compound?
The spleen weight was “reduction”.

What about the thymus weight (CIA rats; 0.2 mg/kg and 0.5 mg/kg dose) of the same compound?
The thymus weight was “reduction”.

And the total body weight (CIA rats; 0.2 mg/kg and 0.5 mg/kg dose)?
The total body weight was “reduction”.

What about the “change in median ankle diameter between day 11 and day 13 as compared to vehicle” value (CIA rats; 0.2 mg/kg dose) of the same compound?
Its value is “statistically significant reduction in ankle diameter”.

And the “difference from Dex in change in ankle diameter” value (CIA rats; 0.2 mg/kg dose)?
Its value is “no statistically significant difference”.

And the mortality and tolerability (CIA rats; 1 mg/kg Dex equivalents IV, some rats)?
The mortality and tolerability was “died overnight”.
